Measurements taken from the RNAGym collection of RNA variant scans (doi:10.1073/pnas.2313332121).

B1: TPR t1 (parent)
chain: GACCAAUCUGCCCUCAGAGCUCGAGAACAUCUUCGGAUGCAGAGGAGGCAGGCUUCGGUGGCGCGAUAGCGCCAACGUCCUCAACCUCCAAUGCAUCCCACCACAUGAUGAUGCCUGAAGAGCCUUGGUUUUUUG

Variants of: B1
Test: polymerase ribozyme fitness, log enrichment relative to wild type (log ratio); higher = more active; in vitro selection for triplet polymerase activity
How it was run: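 Fitness measures genotype enrichment against wild-type enrichment on a logarithmic scale, with inverse-variance-weighted averaging of replicates. The logarithm is base 2, and genotypes were kept only with ≥10 input reads and ≥1 read per output in Illumina sequencing. The sequenced libraries came from one triplicate in vitro selection round, including frozen incubation at −7 °C, of PCR-built, transcribed mutant libraries of each subunit of a heterodimeric triplet polymerase ribozyme.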

For A24G C98U C101A, which “polymerase ribozyme fitness (log ratio)” value is on record?
Its value is -4.13.

Which “polymerase ribozyme fitness (log ratio)” value does the source give for A26U A43U G45U G63C C89U G120A here?
Its value is -6.22.

With A27C G47U U106A C124A U130A U133A as the variant, how does the “polymerase ribozyme fitness (log ratio)” value read?
Its value is -3.86.

With G25A G71A U112C as the variant, how does the “polymerase ribozyme fitness (log ratio)” value read?
The value was -6.36.

For A26U A46U C72U, which “polymerase ribozyme fitness (log ratio)” value is on record?
The value was -3.97.

Which “polymerase ribozyme fitness (log ratio)” value does the source give for A26G G61U here?
Its value is -1.54.

For G25U C56G, which “polymerase ribozyme fitness (log ratio)” value is on record?
Its value is -5.61.

For A26G G57A, which “polymerase ribozyme fitness (log ratio)” value is on record?
Its value is -2.54.

Which “polymerase ribozyme fitness (log ratio)” value does the source give for A24G G77U G113U G122U C124A here?
Its value is -6.49.

With A26G A41G G60C G93A as the variant, how does the “polymerase ribozyme fitness (log ratio)” value read?
The value was -2.97.

With A24U U38G C114A U126G U132A as the variant, how does the “polymerase ribozyme fitness (log ratio)” value read?
Its value is -6.67.

With A24G G57A G77U as the variant, how does the “polymerase ribozyme fitness (log ratio)” value read?
The value was -2.15.

With A24G U59C U87A as the variant, how does the “polymerase ribozyme fitness (log ratio)” value read?
Its value is -2.51.

With A27C G51U C76U C115G C124G U131A G135U as the variant, how does the “polymerase ribozyme fitness (log ratio)” value read?
The value was -7.29.

For A24U C88G, which “polymerase ribozyme fitness (log ratio)” value is on record?
The value was -5.62.

With A26G A46G G60U as the variant, how does the “polymerase ribozyme fitness (log ratio)” value read?
Its value is -3.73.

For A26U G58U, which “polymerase ribozyme fitness (log ratio)” value is on record?
The value was -4.66.

For A26G A105U, which “polymerase ribozyme fitness (log ratio)” value is on record?
The value was -3.51.

Which “polymerase ribozyme fitness (log ratio)” value does the source give for A26U C85U C123A here?
The value was -3.83.

Which “polymerase ribozyme fitness (log ratio)” value does the source give for A26U G48C A50U C53U here?
Its value is -4.37.

For A26G G71U, which “polymerase ribozyme fitness (log ratio)” value is on record?
Its value is -3.23.

Which “polymerase ribozyme fitness (log ratio)” value does the source give for A24G G57A here?
Its value is -2.62.

For A27C A29U C56G, which “polymerase ribozyme fitness (log ratio)” value is on record?
Its value is -4.23.

Which “polymerase ribozyme fitness (log ratio)” value does the source give for A27C C49G G77U here?
Its value is -5.08.

With A26C A46C C115G as the variant, how does the “polymerase ribozyme fitness (log ratio)” value read?
The value was -6.72.

For G25A U54A G61U, which “polymerase ribozyme fitness (log ratio)” value is on record?
Its value is -7.38.

Which “polymerase ribozyme fitness (log ratio)” value does the source give for G25U U32G C72A G110A here?
Its value is -6.9.

With A26G A83C A90G A121C as the variant, how does the “polymerase ribozyme fitness (log ratio)” value read?
The value was -0.49.

For A24G U55G, which “polymerase ribozyme fitness (log ratio)” value is on record?
Its value is -1.71.

With A26U C124A as the variant, how does the “polymerase ribozyme fitness (log ratio)” value read?
Its value is -0.634.

For A26U C56G G69U, which “polymerase ribozyme fitness (log ratio)” value is on record?
Its value is -2.73.

Which “polymerase ribozyme fitness (log ratio)” value does the source give for G25A G44U G52U C62U A105G U112A here?
Its value is -7.09.

For G25A G71U, which “polymerase ribozyme fitness (log ratio)” value is on record?
Its value is -6.24.

For A26U G39A G120C C124A G135A, which “polymerase ribozyme fitness (log ratio)” value is on record?
The value was -3.54.

With A26G G60U as the variant, how does the “polymerase ribozyme fitness (log ratio)” value read?
The value was -2.17.

For A26C G39C C56A A100G U112C, which “polymerase ribozyme fitness (log ratio)” value is on record?
Its value is -7.51.

With A26U C49U A84C C124G as the variant, how does the “polymerase ribozyme fitness (log ratio)” value read?
The value was -2.34.

With G25C A46U G61C C62A G113A C124A as the variant, how does the “polymerase ribozyme fitness (log ratio)” value read?
The value was -8.51.

With A27C A46C C56G as the variant, how does the “polymerase ribozyme fitness (log ratio)” value read?
The value was -4.61.

For A24G C123G, which “polymerase ribozyme fitness (log ratio)” value is on record?
The value was -0.893.

For A26U C97A A121U, which “polymerase ribozyme fitness (log ratio)” value is on record?
Its value is -5.2.

For A26U C49A G60A G110A, which “polymerase ribozyme fitness (log ratio)” value is on record?
The value was -4.81.

For A24U C123G, which “polymerase ribozyme fitness (log ratio)” value is on record?
The value was -3.41.

With A24U C123U as the variant, how does the “polymerase ribozyme fitness (log ratio)” value read?
The value was -4.2.

Which “polymerase ribozyme fitness (log ratio)” value does the source give for A26G C123G C124G here?
Its value is 0.832.

With G25A A74U A100C U109A U130A as the variant, how does the “polymerase ribozyme fitness (log ratio)” value read?
The value was -6.43.

Which “polymerase ribozyme fitness (log ratio)” value does the source give for A24U G52U U55C C64A C82A C86G C99A G110A A119G here?
The value was -7.53.

Which “polymerase ribozyme fitness (log ratio)” value does the source give for A26G U54A A108G here?
Its value is -4.49.

For A26U C82U, which “polymerase ribozyme fitness (log ratio)” value is on record?
The value was -3.73.

With A26U G52U C56U as the variant, how does the “polymerase ribozyme fitness (log ratio)” value read?
Its value is -3.49.

Which “polymerase ribozyme fitness (log ratio)” value does the source give for A24G U59G here?
Its value is -1.69.

For A26C C49A C98U C114U, which “polymerase ribozyme fitness (log ratio)” value is on record?
Its value is -6.14.

Which “polymerase ribozyme fitness (log ratio)” value does the source give for A26G C72G A100C C115U G128A here?
The value was -5.88.

With G25C G69U G110C as the variant, how does the “polymerase ribozyme fitness (log ratio)” value read?
The value was -7.38.

With G25U A46U as the variant, how does the “polymerase ribozyme fitness (log ratio)” value read?
The value was -5.86.

With A26U C88A as the variant, how does the “polymerase ribozyme fitness (log ratio)” value read?
Its value is -3.45.

With A26U A46C C56A G120U as the variant, how does the “polymerase ribozyme fitness (log ratio)” value read?
The value was -4.53.

For A24G C70A G110A A111U, which “polymerase ribozyme fitness (log ratio)” value is on record?
The value was -5.11.

Which “polymerase ribozyme fitness (log ratio)” value does the source give for A26C G39U C114G here?
Its value is -6.59.

With A27C C73U as the variant, how does the “polymerase ribozyme fitness (log ratio)” value read?
The value was -3.12.

With A26U C53G G60A C80U as the variant, how does the “polymerase ribozyme fitness (log ratio)” value read?
Its value is -4.36.

With A24G G48A G93A C97U A111G as the variant, how does the “polymerase ribozyme fitness (log ratio)” value read?
Its value is -3.16.

With G25C U33G C34U A46U C70A as the variant, how does the “polymerase ribozyme fitness (log ratio)” value read?
The value was -8.69.

Which “polymerase ribozyme fitness (log ratio)” value does the source give for A26U C64U A118G here?
The value was -3.85.

For A26U A37G, which “polymerase ribozyme fitness (log ratio)” value is on record?
Its value is -2.5.

With A26U A37C as the variant, how does the “polymerase ribozyme fitness (log ratio)” value read?
Its value is -2.35.

For A26U G128C, which “polymerase ribozyme fitness (log ratio)” value is on record?
Its value is -4.92.

With A27C C53A C82U as the variant, how does the “polymerase ribozyme fitness (log ratio)” value read?
Its value is -4.15.

For A26G C104U G110C C115A, which “polymerase ribozyme fitness (log ratio)” value is on record?
Its value is -5.13.

With A26C G35C G39U A90C G117U as the variant, how does the “polymerase ribozyme fitness (log ratio)” value read?
Its value is -7.41.

Which “polymerase ribozyme fitness (log ratio)” value does the source give for A26G G44U G61A C99U G120U C124A here?
The value was -3.22.

Which “polymerase ribozyme fitness (log ratio)” value does the source give for A26C G35A G61U C98G C124U here?
Its value is -6.78.

Which “polymerase ribozyme fitness (log ratio)” value does the source give for A26U G63A here?
The value was -5.09.

With A26U G63U as the variant, how does the “polymerase ribozyme fitness (log ratio)” value read?
Its value is -3.98.

For A26U C62U A83C C104G A105C C114U U129A, which “polymerase ribozyme fitness (log ratio)” value is on record?
Its value is -7.45.

With A24G G52A A91G as the variant, how does the “polymerase ribozyme fitness (log ratio)” value read?
The value was -3.17.

For A24G G39A C70U A121G, which “polymerase ribozyme fitness (log ratio)” value is on record?
The value was -0.648.

For A27C C72U C124U, which “polymerase ribozyme fitness (log ratio)” value is on record?
The value was -0.653.

With G25U C64A C98G A111U as the variant, how does the “polymerase ribozyme fitness (log ratio)” value read?
The value was -8.01.

With A26U C64U as the variant, how does the “polymerase ribozyme fitness (log ratio)” value read?
Its value is -3.52.

With A26G C28U G35A U87G C124A as the variant, how does the “polymerase ribozyme fitness (log ratio)” value read?
Its value is -4.92.

With A24G C73G G120A as the variant, how does the “polymerase ribozyme fitness (log ratio)” value read?
Its value is -2.15.

For A24G G42U G60U A66U C88G A121G, which “polymerase ribozyme fitness (log ratio)” value is on record?
The value was -3.8.

With A26U G39C G61A A83U G110A A121G as the variant, how does the “polymerase ribozyme fitness (log ratio)” value read?
The value was -5.04.
